T1: Bre1-LR (Bre1 residues 227–700, LBD and RING domains), 6× histidine tag (budding yeast, UniProt Q07457 227-700)
T1 construct: two Bre1 polypeptides form the dimeric coiled-coils of the LBD in the crystal structure; also called WT; source: E. coli BL21 Rosetta (DE3), purified (Ni-NTA, heparin, gel filtration)
T1 sequence (looked up): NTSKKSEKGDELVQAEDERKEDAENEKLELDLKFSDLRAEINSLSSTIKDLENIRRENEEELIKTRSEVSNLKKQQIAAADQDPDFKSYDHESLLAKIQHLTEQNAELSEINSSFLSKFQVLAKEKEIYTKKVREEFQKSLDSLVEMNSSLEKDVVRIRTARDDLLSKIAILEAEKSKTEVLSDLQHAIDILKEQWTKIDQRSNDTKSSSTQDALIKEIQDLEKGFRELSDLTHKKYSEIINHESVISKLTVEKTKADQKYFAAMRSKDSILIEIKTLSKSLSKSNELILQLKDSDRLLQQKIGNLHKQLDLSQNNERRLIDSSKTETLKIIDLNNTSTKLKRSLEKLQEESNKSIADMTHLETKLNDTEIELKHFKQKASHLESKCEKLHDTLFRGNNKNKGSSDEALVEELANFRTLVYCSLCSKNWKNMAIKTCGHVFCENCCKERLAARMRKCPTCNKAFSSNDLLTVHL

T2: Bre1, 6× histidine tag, purified (budding yeast, UniProt Q07457 1-700)
T2 construct: Bre1, budding yeast; the BRE1 gene inserted into pET26b; source: E. coli BL21 Rosetta (DE3), purified (Ni-NTA, heparin, gel filtration)
T2 sequence (looked up): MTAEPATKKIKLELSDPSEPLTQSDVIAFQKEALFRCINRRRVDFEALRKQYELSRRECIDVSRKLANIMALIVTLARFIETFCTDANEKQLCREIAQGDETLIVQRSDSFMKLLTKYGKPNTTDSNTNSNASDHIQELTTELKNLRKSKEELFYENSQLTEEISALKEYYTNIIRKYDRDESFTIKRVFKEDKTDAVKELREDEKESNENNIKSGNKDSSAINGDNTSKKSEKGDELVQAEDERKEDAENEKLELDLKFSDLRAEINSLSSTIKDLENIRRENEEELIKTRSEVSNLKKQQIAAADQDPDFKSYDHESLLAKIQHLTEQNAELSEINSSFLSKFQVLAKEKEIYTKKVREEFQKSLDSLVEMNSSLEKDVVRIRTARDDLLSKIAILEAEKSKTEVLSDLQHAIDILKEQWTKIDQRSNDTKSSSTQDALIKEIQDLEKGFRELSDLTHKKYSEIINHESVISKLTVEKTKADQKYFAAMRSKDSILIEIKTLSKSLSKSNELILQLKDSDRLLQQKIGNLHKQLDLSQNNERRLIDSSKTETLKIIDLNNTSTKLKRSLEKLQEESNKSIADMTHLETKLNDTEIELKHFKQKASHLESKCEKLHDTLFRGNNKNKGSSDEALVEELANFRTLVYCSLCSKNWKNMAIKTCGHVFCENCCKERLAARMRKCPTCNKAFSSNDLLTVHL

B1: Lge1-CT E301K/R305E (domain or fragment, budding yeast, UniProt Q02796 261-332, looked up)
chain: KNVKKTNNTESECEKAREVFKESDSIDSALEELNLKINSNKLELELLNNQCDKHALNIQLTQEKLDSLLLMQ
notes: Lge1, budding yeast, residues 261-332; source: E. coli BL21 Rosetta (DE3): cleared cell extract on chitin resin (pull-down); purified (chitin, heparin, gel filtration) for ITC and SPR
B2: Lge1-CT L320N (domain or fragment, budding yeast, UniProt Q02796 261-332, looked up)
chain: B1 chain with K41E, E45R, L60N
notes: as for B1
B3: Lge1-CT E303K (domain or fragment, budding yeast, UniProt Q02796 261-332, looked up)
chain: B1 chain with K41E, E43K, E45R
notes: as for B1
B4: Lge1-CT I318D (domain or fragment, budding yeast, UniProt Q02796 261-332, looked up)
chain: B1 chain with K41E, E45R, I58D
notes: as for B1
B5: Lge1-CT K313E/H314E (domain or fragment, budding yeast, UniProt Q02796 261-332, looked up)
chain: B1 chain with K41E, E45R, K53E, H54E
notes: as for B1
B6: Lge1-CT L316N (domain or fragment, budding yeast, UniProt Q02796 261-332, looked up)
chain: B1 chain with K41E, E45R, L56N
notes: as for B1
B7: Lge1-CT L325N (domain or fragment, budding yeast, UniProt Q02796 261-332, looked up)
chain: B1 chain with K41E, E45R, L65N
notes: as for B1
B8: Lge1-CT K324E (domain or fragment, budding yeast, UniProt Q02796 261-332, looked up)
chain: B1 chain with K41E, E45R, K64E
notes: as for B1
B9: intein-CBD-tagged WAC-CT (WAC residues 570–647) (domain or fragment, human, UniProt Q9BTA9 570-647, looked up)
chain: HVQGWPADHAEKQASRLREEAHNMGTIHMSEICTELKNLRSLVRVCEIQATLREQRILFLRQQIKELEKLKNQNSFMV
notes: WAC, human, residues 570-647; purified on Ni-NTA although no histidine tag is named; also called intein-WAC; WT; source: purified (Ni-NTA, heparin, gel filtration)
B10: intein-WAC S4 (R630E) (domain or fragment, human, UniProt Q9BTA9 570-647, looked up)
chain: B9 chain with R61E
notes: WAC, human, residues 570-647; source: purified (Ni-NTA, heparin, gel filtration)
B11: intein-WAC S1 (D577K/E580K/R587E) (domain or fragment, human, UniProt Q9BTA9 570-647, looked up)
chain: B9 chain with D8K, E11K, R18E
notes: as for B10
B12: intein-WAC S5 (E635K/E637K/K640E) (domain or fragment, human, UniProt Q9BTA9 570-647, looked up)
chain: B9 chain with E66K, E68K, K71E
notes: as for B10
B13: intein-WAC S3 (R622E/E623K/R625E) (domain or fragment, human, UniProt Q9BTA9 570-647, looked up)
chain: B9 chain with R53E, E54K, R56E
notes: as for B10
B14: intein-WAC S2 (E604K/K606E/R609E/R613E/E616K) (domain or fragment, human, UniProt Q9BTA9 570-647, looked up)
chain: B9 chain with E35K, K37E, R40E, R44E, E47K
notes: as for B10
B15: Lge1, 6× histidine tag, purified (natural protein, budding yeast, UniProt Q02796 1-332, looked up)
chain: MSGYTGNNYSRYSSTPPRQRGGYHHARRSRGGAGGSYYRGGNASYGARYNSDYEQPPQEGDLRQTGAYYRNGYTDTRPYYSANSRHYQAQPSPRYNNGTNSYHLPQRGNSQDTNGRTTSASQEDNDEKRVKSRYRNMQADHPRQQPMSVGSTSSRNGSSGNSSTSSTSNGLPPPPSVSSITNNRSYHSSAYPYSSSHTYNNYHHRETPPPPPSNGYYAKGYPVHVPENRSNSDGSSSSVVKKKRILDMKDSPFIYLTDFDKNVKKTNNTESECEKAREVFKESDSIDSALEELNLKINSNELELRLLNNQCDKHALNIQLTQEKLDSLLLMQ
notes: Lge1, budding yeast; source: E. coli BL21 Rosetta (DE3), purified (Ni-NTA in 8 M urea, urea removed by washing)

Where a chain is given by its changes, count along the chain named. In names and notes the source's numbering stands.

T4 sequence (Q5VTR2 321-900, chain 1 of 2): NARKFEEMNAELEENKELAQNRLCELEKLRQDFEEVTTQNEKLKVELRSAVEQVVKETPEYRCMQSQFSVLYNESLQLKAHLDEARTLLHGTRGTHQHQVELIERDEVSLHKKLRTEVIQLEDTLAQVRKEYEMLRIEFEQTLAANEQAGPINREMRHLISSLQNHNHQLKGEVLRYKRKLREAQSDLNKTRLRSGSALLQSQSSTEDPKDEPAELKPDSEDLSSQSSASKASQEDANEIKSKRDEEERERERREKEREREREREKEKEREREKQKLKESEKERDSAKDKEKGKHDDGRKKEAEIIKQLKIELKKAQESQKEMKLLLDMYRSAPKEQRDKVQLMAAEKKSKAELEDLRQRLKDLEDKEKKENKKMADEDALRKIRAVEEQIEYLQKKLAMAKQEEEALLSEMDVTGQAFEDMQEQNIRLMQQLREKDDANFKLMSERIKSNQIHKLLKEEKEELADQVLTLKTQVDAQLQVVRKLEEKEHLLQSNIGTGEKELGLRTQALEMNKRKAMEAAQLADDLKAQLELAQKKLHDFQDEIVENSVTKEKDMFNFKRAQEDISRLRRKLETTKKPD
T4 sequence (O75150 327-926, chain 2 of 2): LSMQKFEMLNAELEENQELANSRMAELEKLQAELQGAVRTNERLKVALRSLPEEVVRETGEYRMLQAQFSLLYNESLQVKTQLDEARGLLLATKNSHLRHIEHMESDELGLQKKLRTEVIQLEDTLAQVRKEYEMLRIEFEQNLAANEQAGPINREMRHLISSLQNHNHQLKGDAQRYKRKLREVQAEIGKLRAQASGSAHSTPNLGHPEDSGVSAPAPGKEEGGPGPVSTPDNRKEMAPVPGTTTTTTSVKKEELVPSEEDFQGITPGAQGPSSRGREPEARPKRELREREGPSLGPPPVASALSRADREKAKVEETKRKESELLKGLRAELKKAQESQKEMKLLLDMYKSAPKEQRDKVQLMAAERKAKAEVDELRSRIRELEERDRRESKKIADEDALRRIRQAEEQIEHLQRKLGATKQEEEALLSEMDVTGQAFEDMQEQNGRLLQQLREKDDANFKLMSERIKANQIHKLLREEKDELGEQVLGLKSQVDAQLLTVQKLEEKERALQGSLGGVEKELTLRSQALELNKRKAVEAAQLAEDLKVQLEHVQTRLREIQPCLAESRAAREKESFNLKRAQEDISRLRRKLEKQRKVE

For one assay, the target named is T1, Bre1-LR (Bre1 residues 227–700, LBD and …). The experiment in a line: ITC; Lge1-CT (50–60 μM) injected into Bre1-LR (15 μM); 25°C, 20 mM TRIS (pH 7.5), 200 mM sodium chloride. The conditions noted are these: both partners purified. (ITC needs no label: the signal is the heat of the interaction.)
On to B1, for which binding was put at a Kd of 59.7 ± 38.2 nM, the dH is -19.4 ± 2.3 kcal/mol and the “stoichiometry N” value is 0.585 ± 0.022.
As to B2, the Kd is 23.7 ± 3.8 nM, the dH was -49.9 ± 0.6 kcal/mol and the “stoichiometry N” value was found to be 0.37 ± 0.002.
B3: the Kd amounted to 132 ± 24 nM, the dH is -46.7 ± 2.2 kcal/mol and the “stoichiometry N” value amounted to 0.587 ± 0.011.
Take B4: the Kd came to 21.1 ± 3.7 nM, the dH is -53.6 ± 0.8 kcal/mol and the “stoichiometry N” value was determined as 0.37 ± 0.022.
On to B5, for which the affinity, expressed as Kd, was 33.9 ± 8.4 nM; the dH was -43.6 ± 1.1 kcal/mol; the “stoichiometry N” value was 0.392 ± 0.005.
Consider B6, for which the dissociation constant (Kd) came out at 52.2 ± 4.9 nM, the dH was -65.4 ± 0.7 kcal/mol and the “stoichiometry N” value is 0.293 ± 0.002.
B7: binding was put at a Kd of 8.06 ± 1.52 nM, the dH is -61.2 ± 0.6 kcal/mol and the “stoichiometry N” value turned out to be 0.367 ± 0.001.
For B8 the same measures were 8.77 ± 2.09 nM, -48 ± 0.7 kcal/mol and 0.329 ± 0.001.

Another assay has the same target. The experiment in a line: SPR; Lge1-CT immobilised on a CM5 chip, Bre1-LR flown over; Biacore 8K, 25°C, 20 mM HEPES (pH 7.5), 200 mM sodium chloride, 0.02% Tween 20. The settings on record: both partners purified. For orientation: Surface plasmon resonance follows binding to a sensor surface in real time, without labels.
In the case of B1, binding was put at a Kd of 81.7 nM.
With B2, the Kd came to 50.8 nM, the koff came out at 0.00417 s⁻¹ and the kon was 82000 M⁻¹ s⁻¹.
In the case of B3, the dissociation constant Kd was determined as 63.8 nM.
In the case of B4, the Kd was determined as 20.7 nM, the dissociation rate constant (koff) turned out to be 0.00155 s⁻¹ and the kon stood at 74800 M⁻¹ s⁻¹.
For B5, the affinity, expressed as Kd, was 51.8 nM; the dissociation rate constant (koff) was 0.00947 s⁻¹; the kon came out at 183000 M⁻¹ s⁻¹.
The matching figures for B6: 62.8 nM, 0.00527 s⁻¹ and 84000 M⁻¹ s⁻¹.
The matching figures for B7: 58.7 nM, 0.00328 s⁻¹ and 55900 M⁻¹ s⁻¹.
For B8 the same measures were 49.8 nM, 0.00509 s⁻¹ and 102000 M⁻¹ s⁻¹.

The target in a further assay is T3, RNF-MD S1i (E822K/R826E in RNF20 and K860E in RNF40) (human, UniProt Q5VTR2 321-900; O75150 327-926, E822K | R826E | K860E).
T3 construct: RNF20, human, residues 321-900; RNF40, human, residues 327-926; source: E. coli BL21 Rosetta (DE3), purified from the mixed cell extract (strep-tactin, dextrin, gel filtration); copies: 1 + 1
T3 sequence (Q5VTR2 321-900 E822K/R826E, chain 1 of 2): as the sequence (Q5VTR2 321-900, chain 1 of 2) above, with E502K, R506E counted along it
T3 sequence (O75150 327-926 K860E, chain 2 of 2): as the sequence (O75150 327-926, chain 2 of 2) above, with K534E counted along it
The experiment in a line: SPR; RNF-MD immobilised on a CM5 chip, intein-WAC flown over; Biacore 8K, 25°C, 20 mM HEPES (pH 7.5), 200 mM sodium chloride, 0.02% Tween 20. The settings on record: both partners purified.
The molecule B9 showed a Kd of 539 nM, a dissociation rate constant (koff) of 0.0168 s⁻¹ and a kon of 31300 M⁻¹ s⁻¹.

Another assay has as its target T4, RNF-MD complex (strep-SUMO-RNF20 residues 321–900 with MBP-RNF40 residues 327–926) (human, UniProt Q5VTR2 321-900; O75150 327-926).
T4 construct: RNF20, human, residues 321-900; RNF40, human, residues 327-926; heterodimer; also called RNF20/RNF40; WT; source: E. coli BL21 Rosetta (DE3), purified from the mixed cell extract (strep-tactin, dextrin, gel filtration); copies: 1 + 1
Described as above. The settings on record: both partners purified.
Regarding B9, the affinity, expressed as Kd, was 504 nM; the dissociation rate constant (koff) stood at 0.0234 s⁻¹; the on-rate (kon) was found to be 46400 M⁻¹ s⁻¹.
For B10, the dissociation constant (Kd) came out at 1190 nM, the koff was determined as 0.0138 s⁻¹ and the kon turned out to be 11600 M⁻¹ s⁻¹.
The matching figures for B11: 514 nM, 0.0165 s⁻¹ and 32000 M⁻¹ s⁻¹.
With B12, the Kd was 325 nM, the off-rate constant (koff) came out at 0.0143 s⁻¹ and the on-rate constant (kon) stood at 44100 M⁻¹ s⁻¹.

The target in another assay is T5, RNF-MD S3i (E783K/D786K in RNF20 and E449K/K818E in RNF40) (human, UniProt Q5VTR2 321-900; O75150 327-926, E783K | D786K | E449K | K818E).
T5 construct: RNF20, human, residues 321-900; RNF40, human, residues 327-926; source: E. coli BL21 Rosetta (DE3), purified from the mixed cell extract (strep-tactin, dextrin, gel filtration); copies: 1 + 1
T5 sequence (Q5VTR2 321-900 E783K/D786K, chain 1 of 2): as the sequence (Q5VTR2 321-900, chain 1 of 2) above, with E463K, D466K counted along it
T5 sequence (O75150 327-926 E449K/K818E, chain 2 of 2): as the sequence (O75150 327-926, chain 2 of 2) above, with E123K, K492E counted along it
The description is as above. The conditions noted are these: both partners purified.
Molecule B13 displayed a Kd of 285 nM, a koff of 0.00308 s⁻¹ and a kon of 10800 M⁻¹ s⁻¹.

The target in another assay is T6, RNF-MD S2i (E427K/K804E in RNF20 and E428K/E431K/E434K/R442E/E832K/E835K in RNF40) (human, UniProt Q5VTR2 321-900; O75150 327-926, E427K | K804E | E428K | E431K | E434K | R442E | E832K | E835K).
T6 construct: RNF20, human, residues 321-900; RNF40, human, residues 327-926; source: E. coli BL21 Rosetta (DE3), purified from the mixed cell extract (strep-tactin, dextrin, gel filtration); copies: 1 + 1
T6 sequence (Q5VTR2 321-900 E427K/K804E, chain 1 of 2): as the sequence (Q5VTR2 321-900, chain 1 of 2) above, with E107K, K484E counted along it
T6 sequence (O75150 327-926 E428K/E431K/E434K/R442E/E832K/E835K, chain 2 of 2): as the sequence (O75150 327-926, chain 2 of 2) above, with E102K, E105K, E108K, R116E, E506K, E509K counted along it
The description is as above. The settings on record: both partners purified.
In turn, B14 came in with a dissociation constant Kd of 262 nM, a koff of 0.00338 s⁻¹ and a kon of 12900 M⁻¹ s⁻¹.

In a further assay the target is T2, Bre1, 6× histidine tag, purified. The assay is described as follows: co-sedimentation; 5%–45% sucrose gradient, purified Bre1, Lge1 or their mixture; 20 mM TRIS (pH 7.5), 10 mM potassium chloride, 5 mM magnesium chloride; 27 000 rpm, 15 h, 4°C. The conditions noted are these: both partners purified.
As for B15, the binding result is given as “binds”.

As a reminder, the Kd is the free concentration of one partner at which half of the binding sites on the other are occupied at equilibrium, for simple one-to-one binding. Low values mean a tighter complex, high ones a looser complex. As usually defined, the stoichiometry N is the number of molecules, sites or subunits per partner or assembly. In general, koff refers to the first-order rate constant of dissociation. A high value points to fast dissociation. By kon is commonly meant a measure of how fast the partners come together.
